Measurements from patent US20160279215A1, “NOVEL PEPTIDES AND COMBINATION OF PEPTIDES FOR USE IN IMMUNOTHERAPY AGAINST VARIOUS TUMORS” (immatics biotechnologies GmbH, priority 2015, published 2016).

Molecular target: T1, HLA-A*02:01 (human)
T1 construct: MHC monomers captured on streptavidin plates; the UV-sensitive peptide is cleaved and exchanged with the test peptide; also called peptide-receptive MHC molecules; MHC class I
Assay: UV ligand-exchange ELISA (anti-b2m); +++ = exchange yield >=50
From the text: Candidate peptides for T cell based therapies according to the present invention were further tested for their MHC binding capacity (affinity). The individual peptide-MHC complexes were produced by UV-ligand exchange, where a UV-sensitive peptide is cleaved upon UV-irradiation, and exchanged with the peptide of interest as analyzed. Only peptide candidates that can effectively bind and stabilize the peptide-receptive MHC molecules prevent dissociation of the MHC complexes. To determine the yield of the exchange reaction, an ELISA was performed based on the detection of the light chain (β2m) of stabilized MHC complexes. The assay was performed as generally described in Rodenko et al. (Rodenko et al., 2006).
96 well MAXISorp plates (NUNC) were coated over night with 2 ug/ml streptavidin in PBS at room temperature, washed 4× and blocked for 1 h at 37° C. in 2% BSA containing blocking buffer. Refolded HLA-A*02:01/MLA-001 monomers served as standards, covering the range of 15-500 ng/ml. Peptide-MHC monomers of the UV-exchange reaction were diluted 100 fold in blocking buffer. Samples were incubated for 1 h at 37° C., washed four times, incubated with 2 ug/ml HRP conjugated anti-β2m for 1 h at 37° C., washed again and detected with TMB solution that is stopped with […]. Absorption was measured at 450 nm. […]

How did the peptide exchange yield turn out when SLTGANITV was run?
The peptide exchange yield was 50 to 75%.
